For two substances, stoichiometry N results are on record in doi:10.1101/2020.07.31.231399.

The target of assay [1] is M. sp. JS623 type IV-B Csf2 (Cas7-like backbone subunit), N-terminally Strep-tagged (Mycobacterium sp. JS623). The assay is described as follows: cryo-EM structure.
Assay [2] addresses M. sp. JS623 type IV-B Csf4 (Cas11 small subunit) (Mycobacterium sp. JS623). The assay can be described thus: cryo-EM structure.

In assay [1], “M. sp. JS623 type IV-B Csf2 (Cas7-like backbone subunit), N-terminally Strep-tagged (natural protein)” gave a stoichiometry N of 7.

The substance “M. sp. JS623 type IV-B Csf4 (Cas11 small subunit) (natural protein)” gave a stoichiometry N in assay [2] of 5.

A word on the stoichiometry N: it is the number of molecules, sites or subunits per partner or assembly.
